What was measured:
[1] = biological target: T1, extracellular domain of activin receptor type IIB (ActRIIBecd), biotinylated (Homo sapiens (Human), UniProt Q13705 27-117, amino-biotinylated with amine-PEG3-Biotin); test: BIAcore SPR, biotinylated ActRIIBecd on chip; SD ±12.01 nM
T1 construct: immobilised on a streptavidin-coated sensor chip; also called biotinylated ActRIIBecd; extracellular domain of ActRIIB
T1 sequence: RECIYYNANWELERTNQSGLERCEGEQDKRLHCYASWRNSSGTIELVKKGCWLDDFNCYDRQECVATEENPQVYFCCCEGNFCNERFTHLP
Protocol: (§1) Biosensor experiments. In one embodiment, experiments were performed on a BIAcore™ T100/T200 instrument (Pharmacia Biosensor AB) in the multichannel mode (serial flow path involving flow cells 1+2+3+4). Flow rate was 10 μl/min; temperature was 25° C.; and data were recorded at 2.5 points/s. All four segments of a sensor chip CMS were coated with streptavidin (Sigma) to a density of 2000 pg/mm² (2000 resonance units) by the aminocoupling procedure. ActRIIBecd (10 mg) and amine-PEG3-Biotin (10 mg, Pierce, Rockford, Ill.) were dissolved in 200 μl H₂O and 10 mg NaCNBH₃ was added to prepare biotinylated ActRIIBecd. The reaction mixture was heated at 70° C. for 24 h, after that a further 10 mg NaCNBH₃ was added and the reaction was heated at 70° C. for another 24 h. After cooling to room temperature, the mixture was desalted with the spin column (3,000 molecular weight cut off (MWCO)). […] Sensograms were recorded during flow of the analyte (the ActRIIBecd-associated polypeptides (i.e., domains) as previously described) first through flow cell 1 (control) then through flow cell 2 (biotinylated ActRIIBecd). […] The sensograms obtained at 1.11, 3.33, 10, 30, and 90 nM analyte were evaluated for equilibrium binding, association rate, and dissociation rate by using the programs supplied with the instrument (BIA evaluation 2.1; Software Handbook. 1995; Pharmacia Biosensor AB).

[2] = biological target: T1, extracellular domain of activin …; test: BIAcore SPR, biotinylated ActRIIBecd on chip; SD ±13.97 nM
Protocol: as §1

[3] = biological target: T1, extracellular domain of activin …; test: BIAcore SPR, biotinylated ActRIIBecd on chip; SD ±10.27 nM
Protocol: as §1

[4] = biological target: T1, extracellular domain of activin …; test: BIAcore SPR as Example 5 (method not restated); SD ±2.01 nM
Protocol: as §1

[5] = biological target: T1, extracellular domain of activin …; test: Mean KD column of Table 5; method not restated (BIAcore as Example 5); species also listed in Table 4
Procedure, shortened: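 Using a streptavidin-captured, biotinylated ectodomain, binding of the domain polypeptides was monitored at 25° C, 10 μl/min. Association, dissociation and equilibrium values were evaluated from concentrations of 1.11, 3.33, 10, 30 and 90 nM.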

[6] = biological target: T1, extracellular domain of activin …; test: BIAcore SPR, biotinylated ActRIIBecd on chip; SD ±16.71 nM
Protocol: as §1

[7] = biological target: T1, extracellular domain of activin …; test: BIAcore SPR, biotinylated ActRIIBecd on chip; SD ±15.39 nM
Protocol: as §1

[8] = biological target: T1, extracellular domain of activin …; test: BIAcore SPR as Example 5 (method not restated); SD ±2.12 nM
Protocol: as §1

[9] = biological target: T1, extracellular domain of activin …; test: BIAcore SPR, biotinylated ActRIIBecd on chip; SD ±12.04 nM
Protocol: as §1

[10] = biological target: T1, extracellular domain of activin …; test: BIAcore SPR, biotinylated ActRIIBecd on chip; SD ±11.61 nM
Protocol: as §1

[11] = biological target: T1, extracellular domain of activin …; test: BIAcore SPR, biotinylated ActRIIBecd on chip; SD ±12.10 nM
Protocol: as §1

B1: Recombinant polypeptide of clones 19 + 8 + 14 (designed binder)
chain: NSKDPKACCVPTELSAPSPLYLDENEKPVLKNYQDMVVHGCGCRGQAKRKGYKRLKSSCKRHPLYVDFKDVGWNDHAVAPPGYHAFYCHGECPFPLADHLNSDNHAIVQTKVNSV
B1 gave a Kd [1] of 16 nM.

B2: Recombinant polypeptide of clones 10 + 19 + 14 (designed binder)
chain: AQAKHKQRKRLKSSCKRHPLYNSKDPKACCVPTELSAPSPLYLDENEKPVLKNYQDMVVHGCGCRVDFKDVGWNDHAVAPPGYHAFYCHGECPFPLADHLNSDNHAIVQTKVNSV
For B2, the Kd [2] was 17 nM.

B3: Recombinant polypeptide of clones 19 + 14 + 8 (designed binder)
chain: NSKDPKACCVPTELSAPSPLYLDENEKPVLKNYQDMVVHGCGCRVDFKDVGWNDHAVAPPGYHAFYCHGECPFPLADHLNSDNHAIVQTKVNSVGQAKRKGYKRLKSSCKRHPLY
B3 showed a Kd [3] of 14.1 nM.

B4: SEQ ID NO: 194, cysteine pairs C23-C65^a (designed binder)
chain: VDFSDVGWNDWIVAPPGYHAFYCHGECPFPLADHLNSTNHAIVQTLVNSVAQAKHKQRKRLKSSCKRHPLY
modifications: disulfides C23-C65 (intra)
Binder B4 has a Kd [4] of 46 nM and a Kd [5] of 46 nM.

B5: Clone No. 9 domain (ActRIIBecd-associated polypeptide) (peptide)
chain: AQAKHKGYKRLKSSCKRHPLY
For B5, the Kd [6] was 52.4 nM.

B6: Clone No. 8 domain (ActRIIBecd-associated polypeptide) (peptide)
chain: GQAKRKGYKRLKSSCKRHPLY
B6 gave a Kd [7] of 45.1 nM.

B7: SEQ ID NO: 188, cysteine pairs C15-C44^a (designed binder)
chain: AQAKHKQRKRLKSSCKRHPLYVDFSDVGWNDWIVAPPGYHAFYCHGECPFPLADHLNSTNHAIVQTLVNSV
modifications: disulfides C15-C44 (intra)
Work on B7 yielded a Kd [8] of 42.3 nM and a Kd [5] of 42.3 nM.

B8: Recombinant polypeptide of clones 8 + 15 + 19 (designed binder)
chain: GQAKRKGYKRLKSSCKRHPLYVDFSDVGWNDWIVAPPGYHAFYCHGECPFPLADHLNSTNHAIVQTLVNSVNSKDPKACCVPTELSAPSPLYLDENEKPVLKNYQDMVVHGCGCR
Binder B8 has a Kd [9] of 16.5 nM.

B9: Recombinant polypeptide of clones 10 + 14 + 21 (designed binder)
chain: AQAKHKQRKRLKSSCKRHPLYVDFKDVGWNDHAVAPPGYHAFYCHGECPFPLADHLNSDNHAIVQTKVNSVNSKIPKACCVPTELSAISMLYLDENEKVVLKNYQDMVVEGCGCR
B9 showed a Kd [10] of 18 nM.

B10: Recombinant polypeptide of clones 8 + 21 + 15 (designed binder)
chain: GQAKRKGYKRLKSSCKRHPLYNSKIPKACCVPTELSAISMLYLDENEKVVLKNYQDMVVEGCGCRVDFSDVGWNDWIVAPPGYHAFYCHGECPFPLADHLNSTNHAIVQTLVNSV
B10 showed a Kd [11] of 17.1 nM.

Source: US20190071480A1 (Biogen, published 2019)
